These results are taken from patent US7393670B2, “Tyrosyl-tRNA synthetase variants” (Japan Science and Technology Agency, priority 2001, dated 2008).

Positions count from the first letter of the chain named. A value given as a limit tells only on which side of the number the result lay.

B1: AS: E. coli TyrRS double variant: position 37 Alanine, position 195 Serine (protein, UniProt P0AGJ9 2-424, looked up, variant Y37A Q195S)
Tyrosine--tRNA ligase: ASSNLIKQLQERGLVAQVTDEEALAERLAQGPIALACGFDPTADSLHLGHLVPLLCLKRFQQAGHKPVALVGGATGLIGDPSFKAAERKLNTEETVQEWVDKIRKQVAPFLDFDCGENSAIAANNYDWFGNMNVLTFLRDIGKHFSVNQMINKEAVKQRLNREDQGISFTEFSYNLLQGYDFACLNKQYGVVLSIGGSDQWGNITSGIDLTRRLHQNQVFGLTVPLITKADGTKFGKTEGGAVWLDPKKTSPYKFYQFWINTADADVYRFLKFFTFMSIEEINALEEEDKNSGKAPRAQYVLAEQVTRLVHGEEGLQAAKRITECLFSGSLSALSEADFEQLAQDGVPMVEMEKGADLMQALVDSELQPSRGQARKTIASNAITINGEKQSDPEYFFKEEDRLFGRFTLLRRGKKNYCLICWK
B2: LA: E. coli TyrRS double variant: position 37 Leucine, position 195 Alanine (protein, UniProt P0AGJ9 2-424, looked up, variant Y37L Q195A)
Tyrosine--tRNA ligase: B1 Tyrosine--tRNA ligase with A36L, S194A
B3: LN: E. coli TyrRS double variant: position 37 Leucine, position 195 Asparagine (protein, UniProt P0AGJ9 2-424, looked up, variant Y37L Q195N)
Tyrosine--tRNA ligase: B1 Tyrosine--tRNA ligase with A36L, S194N
B4: LC: E. coli TyrRS double variant: position 37 Leucine, position 195 Cysteine (protein, UniProt P0AGJ9 2-424, looked up, variant Y37L Q195C)
Tyrosine--tRNA ligase: B1 Tyrosine--tRNA ligase with A36L, S194C
B5: IA: E. coli TyrRS double variant: position 37 Isoleucine, position 195 Alanine (protein, UniProt P0AGJ9 2-424, looked up, variant Y37I Q195A)
Tyrosine--tRNA ligase: B1 Tyrosine--tRNA ligase with A36I, S194A
B6: Wild-type: wild-type tyrosyl-tRNA synthetase of E. coli (SEQ ID NO: 1): position 37 Tyrosine, position 195 Glutamine (protein, listed as Escherichia coli)
chain: MASSNLIKQLQERGLVAQVTDEEALAERLAQGPIALYCGFDPTADSLHLGHLVPLLCLKRFQQAGHKPVALVGGATGLIGDPSFKAAERKLNTEETVQEWVDKIRKQVAPFLDFDCGENSAIAANNYDWFGNMNVLTFLRDIGKHFSVNQMINKEAVKQRLNREDQGISFTEFSYNLLQGYDFACLNKQYGVVLQIGGSDQWGNITSGIDLTRRLHQNQVFGLTVPLITKADGTKFGKTEGGAVWLDPKKTSPYKFYQFWINTADADVYRFLKFFTFMSIEEINALEEEDKNSGKAPRAQYVLAEQVTRLVHGEEGLQAAKRITECLFSGSLSALSEADFEQLAQDGVPMVEMEKGADLMQALVDSELQPSRGQARKTIASNAITINGEKQSDPEYFFKEEDRLFGRFTLLRRGKKNYCLICWK
B7: VN: E. coli TyrRS double variant: position 37 Valine, position 195 Asparagine (protein, UniProt P0AGJ9 2-424, looked up, variant Y37V Q195N)
Tyrosine--tRNA ligase: B1 Tyrosine--tRNA ligase with A36V, S194N
B8: 37A: E. coli TyrRS variant: position 37 Alanine, position 195 Glutamine (protein, UniProt P0AGJ9 2-424, looked up, variant Y37A)
Tyrosine--tRNA ligase: B1 Tyrosine--tRNA ligase with S194Q
B9: AN: E. coli TyrRS double variant: position 37 Alanine, position 195 Asparagine (protein, UniProt P0AGJ9 2-424, looked up, variant Y37A Q195N)
Tyrosine--tRNA ligase: B1 Tyrosine--tRNA ligase with S194N
B10: AA: E. coli TyrRS double variant: position 37 Alanine, position 195 Alanine (protein, UniProt P0AGJ9 2-424, looked up, variant Y37A Q195A)
Tyrosine--tRNA ligase: B1 Tyrosine--tRNA ligase with S194A
B11: IC: E. coli TyrRS double variant: position 37 Isoleucine, position 195 Cysteine (protein, UniProt P0AGJ9 2-424, looked up, variant Y37I Q195C)
Tyrosine--tRNA ligase: B1 Tyrosine--tRNA ligase with A36I, S194C
B12: IN: E. coli TyrRS double variant: position 37 Isoleucine, position 195 Asparagine (protein, UniProt P0AGJ9 2-424, looked up, variant Y37I Q195N)
Tyrosine--tRNA ligase: B1 Tyrosine--tRNA ligase with A36I, S194N

The first assay in a line: Aminoacylation reaction, simplified Lloyd's method, inorganic phosphate detected with Biomol green. The assay is classed as biochemical. Further details: key: ***: the reaction could be detected strongly at 25 nM; **: strongly at 250 nM; *: weakly at 250 nM; the activity is high in the order of *** > ** > * > —. The settings on record: Table 3; tyrosine 200 μM; 37° C. for 4 min. Here is the method: (§1) In the first method, Lloyd's method (Nucleic Acids Research, 23:2886-2892, 1995) where inorganic phosphate produced by pyrophosphatase-drived hydrolysis of pyrophosphate which was one of the reaction products of the aminoacylation reactions was quantified was simplified, and the inorganic phosphate was detected using Biomol green (Funakoshi) to carry out the measurement of the aminoacylation reaction.
(§2) Amino acid concentrations were 200 μM and 1 mM for tyrosine and 3-iodotyrosine, respectively.
(§3) The method where the aminoacylation reaction is measured by quantifying inorganic phosphate produced by pyrophosphatase-drived hydrolysis of pyrophosphate which is one of reaction products of the aminoacylation has been described by Lloyd et al. (Nucleic Acids Research, 23:2886-2892, 1995). In one method of the invention, this method was simplified and the aminoacylation reaction was measured by the detection of inorganic phosphate using Biomol green (Funakoshi). […] To stop the reaction, 0.1 ml of Bio mol green was added. Absorbance of its supernatant was measured at 630 nm.
Turning to B1, the “Aminoacylation activity, Tyrosine” value is reported as “*”.
Same read-out and setting: to B2 belongs “*”.
With B3, the “Aminoacylation activity, Tyrosine” value was “*”.
On to B4, for which the “Aminoacylation activity, Tyrosine” value was “*”.
The same measure, in the same setting: to B5 belongs “*”; to B6, “***”.

Assay in the next assay: as above
The assay is classed as biochemical. More on the design: key: ***: the reaction could be detected strongly at 25 nM; **: strongly at 250 nM; *: weakly at 250 nM; the activity is high in the order of *** > ** > * > —. The settings on record: Table 3; 3-iodotyrosine 1 mM; 37° C. for 4 min. How it is done:
as §1, §2
(§4) The method where the aminoacylation reaction is measured by quantifying inorganic phosphate produced by pyrophosphatase-drived hydrolysis of pyrophosphate which is one of reaction products of the aminoacylation has been described by Lloyd et al. (Nucleic Acids Research, 23:2886-2892, 1995). In one method of the invention, this method was simplified and the aminoacylation reaction was measured by the detection of inorganic phosphate using Biomol green (Funakoshi). Each enzyme obtained was incubated with 0.05 ml of the buffer B containing 1 mM ATP (Seikagaku Corporation), 30 μM purified crude tyrosyl-tRNA, and 100 μM tyrosine or 0.5 mM 3-iodotyrosine at 37° C. for one hour. To stop the reaction, 0.1 ml of Bio mol green was added. Absorbance of its supernatant was measured at 630 nm.
For B7, the “Aminoacylation activity, 3-iodotyrosine” value is listed as “**”.
Same read-out and setting: to B1 belongs “*”.
Still for that read-out and setting: the value for B4 was “*”; that for B5 was “*”.

The next assay can be described thus: Aminoacylation activity by Lloyd's method (release of pyrophosphates). To be noted: 3-iodotyrosine versus tyrosine, from Table 4. The assay is classed as biochemical. Here is the method: In the second method, Lloyd's method (Nucleic Acids Research, 23:2886-2892, 1995) was carried out without alteration.
In the second method, the activity was assayed by Lloyd's method (Nucleic Acids Research, 23:2886-2892, 1995). Each enzyme obtained was incubated with 0.4 ml of the buffer B containing 1 mM ATP (Seikagaku Corporation), 100 μM purified crude tyrosyl-tRNA, 200 μM tyrosine or 3-iodotyrosine at 37° C. for 6 min. The aminoacylation activity was represented as concentrations of released phosphate per min.
B7: the “relative tyrosine analogue to tyrosine ratio” value is given as “inferior to VC”.

The assay is the same for the next values; noted with them: at 37° C.; 200 μM 3-iodotyrosine.
Take B7: the “Initial velocity of release of pyrophosphates, 3-iodotyrosine” value is listed as 6.9 nM PPi/min/nM enzyme.
Same read-out and setting: the value for B8 was 12 nM PPi/min/nM enzyme.
For the molecule B6, the “Initial velocity of release of pyrophosphates, 3-iodotyrosine” value is below 0.05 nM PPi/min/nM enzyme.

The same assay, now with this note: at 37° C.; 200 μM tyrosine.
On to B7, for which the “Initial velocity of release of pyrophosphates, Tyrosine” value turned out to be 2.1 nM PPi/min/nM enzyme.
Still for that read-out and setting: the value for B8 was 51 nM PPi/min/nM enzyme; that for B6 was 400 nM PPi/min/nM enzyme.

A further assay is described as follows: Aminoacylation reaction, simplified Lloyd's method, inorganic phosphate detected with Biomol green. More on the design: key: ***: the aminoacylation reaction was detected by a microplate reader in the reaction at enzyme concentrations of 50 nM; **: 500 nM; *: 5 μM; the activity is high in the order of *** > ** > * > —. The settings on record: Table 2; 3-iodotyrosine 1 mM; 37° C. for 4 min. The assay is classed as biochemical. How it is done:
as §1, §2, §4
As for B8, the “Aminoacylation activity, 3-iodotyrosine” value is on record as “***”.
Same read-out and setting: to B6 belongs “—”.

The assay is the same for the next values; noted with them: Table 3; 3-iodotyrosine 1 mM; 37° C. for 4 min.
Consider B9, for which the “Aminoacylation activity, 3-iodotyrosine” value is reported as “—”.
As for B2, the “Aminoacylation activity, 3-iodotyrosine” value is reported as “—”.
The same measure, in the same setting: to B3 belongs “—”.
On the same count and under the same terms, to B10 belongs “—”; to B11, “—”.
The same measure, in the same setting: to B12 belongs “—”; to B6, “—”.

Assay in the next assay: as above
The assay is classed as biochemical. More on the design: key: ***: the aminoacylation reaction was detected by a microplate reader in the reaction at enzyme concentrations of 50 nM; **: 500 nM; *: 5 μM; the activity is high in the order of *** > ** > * > —. To be noted: Table 2; tyrosine 200 μM; 37° C. for 4 min. Here is the method: as §1, §2, §3
On to B8, for which the “Aminoacylation activity, Tyrosine” value is listed as “***”.
On the same count and under the same terms, the value for B6 was “***”.

The assay is the same for the next values; noted with them: Table 3; tyrosine 200 μM; 37° C. for 4 min.
With B7, the “Aminoacylation activity, Tyrosine” value was “—”.
For the molecule B9, the “Aminoacylation activity, Tyrosine” value was “—”.
On the same count and under the same terms, to B10 belongs “—”; to B11, “—”; to B12, “—”.
